# Laboratory results published in article PMC4422259, “Arc is a flexible modular protein capable of reversible self-oligomerization” (Biochemical Journal, 2015).
# B1: recombinant human Arc (activity-regulated cytoskeleton-associated protein), wild type, cleaved from the His-ZZ-hArc fusion protein (natural protein, UniProt Q7LC44 1-396, looked up)
# chain: MELDHRTSGGLHAYPGPRGGQVAKPNVILQIGKCRAEMLEHVRRTHRHLLAEVSKQVERELKGLHRSVGKLESNLDGYVPTSDSQRWKKSIKACLCRCQETIANLERWVKREMHVWREVFYRLERWADRLESTGGKYPVGSESARHTVSVGVGGPESYCHEADGYDYTVSPYAITPPPAAGELPGQEPAEAQQYQPWVPGEDGQPSPGVDTQIFEDPREFLSHLEEYLRQVGGSEEYWLSQIQNHMNGPAKKWWEFKQGSVKNWVEFKKEFLQYSEGTLSREAIQRELDLPQKQGEPLDQFLWRKRDLYQTLYVDADEEEIIQYVVGTLQPKLKRFLRHPLPKTLEQLIQRGMEVQDDLEQAAEPAGPHLPVEDEAETLTPAPNSESVASDRTQPE
# notes: human Arc (activity-regulated cytoskeleton-associated protein); called full-length hArc; Vector pETZZ_1a; also called WT hArc; Arc/Arg3.1; source: E. coli BL21-CodonPlus, auto-induction medium, purified (Ni-NTA, TEV cleavage, second Ni-NTA flow-through); not shown: His, N-terminal, cleaved; ZZ domain, N-terminal, cleaved
# Tests used:
# [1] = target: the molecule itself; experiment: dynamic light scattering; hArc 22 μM (1 mg/ml) in 10 mM potassium phosphate, pH 7.4, at 36°C
# [2] = target: the molecule itself; experiment: dynamic light scattering; hArc 22 μM (1 mg/ml) in 10 mM potassium phosphate, pH 7.4, without salt, at 20°C and 90°C
protein,measurement,setting,value
B1,stoichiometry N,[1],> 12 subunits
same,stoichiometry N,[2],≥ 40 subunits
